# Experimental data published in the DeepSol protein solubility set.
# Assay: soluble on expression in E. coli; label from the status in PepcDB or PDB records
row,Sequence,soluble on expression in E. coli
1,MAKNIQAIRGMNDYLPGETAIWQRIEGTLKNVLGSYGYSEIRLPIVEQTPLFKRAIGEVTDVVEKEMYTFEDRNGDSLTLRPEGTAGCVRAGIEHGLLYNQEQRLWYIGPMFRHERPQKGRYRQFHQLGCEVFGLQGPDIDAELIMLTARWWRALGISEHVTLELNSIGSLEARANYRDALVAFLEQHKEKLDEDCKRRMYTNPLRVLDSKNPEVQALLNDAPALGDYLDEESREHFAGLCKLLESAGIAYTVNQRLVRGLDYYNRTVFEWVTNSLGSQGTVCAGGRYDGLVEQLGGRATPAVGFAMGLERLVLLVQAVNPEFKADPVVDIYLVASGADTQSAAMALAERLRDELPGVKLMTNHGGGNFKKQFARADKWGARVAVVLGESEVANGTAVVKDLRSGEQTAVAQDSVAAHLRTLLG,soluble
2,MTTFNYTNILTQAVDELSESQSYKGLFHQHKDGDPLPSAKSLYKIVELARAIIFPGYFGNSTVNSHTINYHIGVNVETLFGLLTEQILAGLCFGQENSKNATDDNEPCRETASLLAARFISKLPELRRILATDVEAAYYGDPAATCFGEIISCYPAIRAISNYRIAHELLILGVPLIPRFITEMAHSETGIDIHPGAQIGHHFTIDHGTGVVIGATSIIGNNVKLYQGVTLGAKSFPLDNNGNPIKGIPRHPILEDDVIVYSNATILGRVTIGKGATVGGNIWVTENVPAGSRIVQRKNKDELEHHHHHH,soluble
3,MGSDKIHHHHHHMSSIFEKYSVRRVINASGKMTILGVSTVDKEVIEAIGEGCKNFFIIEELINKTGEYIANLLGCESALIVSSASAGIAQSVGAMIAKDDMSLVYNVNNPKKQVKREIIIPKGHNVDYGVPVEVMIRLGGGEVVEAGYANMCNKEHIIREINENTAAIMYIKSHHCVQKSMLSVLDAVQVAKEYNLPLIVDAAAEEDLNVYYELGADLVIYSGAKAIEGPSSGLVIGKKKYIDNVKLQSKGIGRAMKIGKENIVGLTCAIERYISNDKVTLKEMEDKLNPFIDKINTIKGVSASITRDSAGREILRGEIDFNEDIINKSTQQIINELRSGEIAIYTRDYKANEGKIEIDIRSVTGSDLDTIYNRIKNIVES,not soluble
4,MAHHHHHHMEGEEVPLVQPFRQHREQCRVKLQEIGPRMTLQLSKVENGFAGGEVIYHRTEKKTLREVQVNASKVRARKTEKAKRRALQDENVQRKRQKREDKLERKHQRREAAAEAQQANPFEVAHGDGDGDGYAAGDEE,not soluble
5,MGSDKIHHHHHHMGTVPTPAGLAFFQQVQLALRHLDHAVDSAHSSRLSGHVTVGFSPSVAAVIGTHFLKLMRNRYPDIKVRLIEGLSGDLKALVNARQLDVAIIFSDDVDPQWAIQPLVKEQMFLISPKEVLNQYHLESCIDNQTITHSQLKELPLILPSQRHGLRLLLEQKIHQLKVAYEIDGLHLLMESISQLEMATIQPAGASLNSRQDLCLLRVVEPAIERINYLISLSEEELSPATLATKVVIRACVANLINEKRWPGAELINT,not soluble
6,MDKNINISVKVWRQKGPKEKGHFETYQLQNISQSASFLEMMDILNEQLIKEHKAPVVFDHDCREGICGMCSLYINGHPHGPDDSITTCQLHMRRFDDGDTITIEPWRSAGFPVIRDLMVDRSAYDKIIQSGGFVSVNTGGIPDANAIPISKKNADEAMDAAACIGCGACAAACKNGSAMLFVSAKVSQLALLPQGRIEAARRAKAMVAKMDELGFGNCTNTRACEMECPKNVSISHIARLNREYIVAKNRD,not soluble
7,MSRRASKRPAPYPLLCEQKPEDLLVAPVEHKVYQDFEPKRPREFSPVMAQSLPPGEIDFQPSKIIFNAPYNENQESKIKLINTSALRIAYGINTYMKRLRVDTMCTPNCGVLDPSEEILLTISCDAFAFGQVDTTNDRITVEWTNTSEGSTKQFCRDWLDGDGMVRRKTLPIEYSSSPIAQTSSAPLLQASKHGMWLPIGFAASELYDYAKGEPLDRKTCEKNLEKLIKNDRDVDYYEWLNFAKRCRTQNQNLMEEMALGMAFTTAMANKQHRKISRKAEKITEPITTNKAFSIDSAEKFDRALTLPSRKWFMISDVVTDGDVSNWSTANLVTLVRALARTVFDKVAIADPHMMCYATSQNASTYIPIARDFFEGFAEYILGGFGEEQSRDLKFRVRKLVTDVMGNKLDRVRGRHNKMYGNEASEDATRWLREQLRKEDGELKESRLIFPNGSEMMCNYQVNEENPEGSIKSEIFNDEEEVEME,not soluble
8,MGSDKIHHHHHHMPYAVTLPEFTGPLDLLLRLIERAELDITTIALASVADQYLAHVRTLEEVEPRELAEFVSMAARLILIKSRALLPRSPTTPAEAGDEDAGQLVAQLELYRRFKQAAEVLRRWQDQGRSTFVRLAPPPLLPAPAPISYRITDLLHALERRRQLQLPLAQPEPIVLAPRLTVAEVAERIRARLERTAWFDFTDLLSNDPTTEEVIVSFWAMLELLKRRAIVVEQTMLFGPILIGRGTAPIVTEPADEDEL,not soluble
9,MEAEPLETEQDEWRKERMRVLDEWCEIELKGADALKMDVTREPGSPTVAVAPETSLQDLYPLLIATSSSNAPPSATPTDDVTDPEVQVVSRESIDNRSTFNRIIDVCLCRPVKSQMGPKAYTDKTLILKLAQIPYDHENGTHWLLLSDYFNNVSRSLMTSSEYSHVTNPSRVGAHWVTVGFQSATPHTDFRGCGVLGLLQMHTFTQRVPANLLRAIVLLATTEPNDFPLAVVSINITSILLTQLKKGALDNFGNEIEGLYPFFSALHASAMCRFCSIYKSQKCTLANTQTIFSEITRQLEKSPLSLIMLLNPTNDELINTLL,not soluble
10,TAWILMVPIALLYVKNWEEECCKQKKEEFREQFRESIQTLSAILKVGYSVENAIRETWKEICPIYKKKTRIIKEYETMVHQLDLNMTAEEVMKQFADRVKEEDVENFVTVFGAAKRLGGDSIAIIRHAADAIGEKMEVEREIQVMLTSKKLEFKIMCVIPFVIILYMRSAFPEFM,not soluble
11,MRKSLVALLLLAASGLAQAQVDLREGHPDRYTVVRGDTLWDISGKFLRQPWKWPELWHANPQIQNPHLIYPGDTLSLVYVDGQPRLVLNRGESRGTIKLSPKIRSTPIAEAIPTIPLDKINSFLLANRIVDDEKTFTSAPYIVAGNAERIVSGTGDRIYARGKFADGQPAYGIFRQGKVYIDPKTKEVLGINADDIGGGEVVATEGDVATLALTRTTQEVRLGDRLFPTEERAVNSTFMPGEPSREVKGEIIDVPRGVTQIGQFDVVTLNRGQRDGLAEGNVLAIYKVGETVRDRVTGESVKIPDERAGLLMVFRTYKKLSYALVLMASRPLSVTDRVQNP,not soluble
12,MENWYPCIICGIARYGHDVIATPRLTSDARVNQWLNLIGKPALNRILATNKNPTLNTFICIEHFEPEELIEPKKRRMKPIKTTRREMAIYENYFRDHGYFETQKSDVNRKKSMKLTSISCSQCSESVERDGKFAKIDMVDHAKLHMELGDCRCEKHKKIERIDRIDGENSDFQCSECAFILNAELEAVKEKAEFCFPMFQFEKSKFSNSTLEPRMKPEYIESRPFWNSEEYDPVFLDSDVKFDLIEDFEPPEPEPEPEQVDTELVKLEPIDGDYEHMEGCFSGFEQEESEQPSTSSAPRKLVQQRDRLLENLYQSNRHPSMEDINSLLDFSGDQRSIEAIFGFFERRRNDDNEMCTGDDACSSLRRYLEMELHPHGPLLEPPEIRCRMIKMFEKHWAKYRYVFRDLHSYMFSDALGLPPKYIRQRFEHFKERKNQQQKKQQEEADRAFRERHKPPKPHKPKPKSQYSKFEDETMEKAYMRTVKMNPSSYESRDLLESISISLRMSLIKVHEWFNNRKFVDSIIDQTWRTFSVNDEKRLHSTFLQNPQPTDEQYCYLAKELRAPVKEVMNWFKLKQMNEEREEEALKFEYKLDALTQESIDLFTTIVDGTTVVSVAKRRLLALELDVPYETLGRWIFYYRNREEKSRKSPKLEDDDDPPPRLAKMPRLEMNEPDNEEDIKLEPLDS,not soluble
13,MGGSHHHHHHGMASMTGGQQMGRTLYDDDDKDRWGSKIVVVGANHAGTACIKTMLTNYGDANEIVVFDQNSNISFLGSGMALWIGEQIAGPEGLFYSDKEELESLGAKVYMESPVQSIDYDAKTVTALVDGKNHVETYDKLIFATGSQPILPPIKGAEIKEGSLEFEATLENLQFVKLYQNSADVIAKLENKDIKRVAVVGAGYIGVELAEAFQRKGKEVVLIDVVDTCLAGYYDRDLTDLMAKNMEEHGIQLAFGETVKEVAGNGKVEKIITDKNEYDVDMVILAVGFRPNTTLGNGKIDLFRNGAFLVNKRQETSIPGVYAIGDCATIYDNATRDTNYIALASNAVRTGIVAAHNACGTDLEGIGVQGSNGISIYGLHMVSTGLTLEKAKRLGFDAAVTEYTDNQKPEFIEHGNFPVTIKIVYDKDSRRILGAQMAAREDVSMGIHMFSLAIQEGVTIEKLALTDIFFLPHFNKPYNYITMAALGAKD,soluble
14,MGHHHHHHSHMDSTTVNYFALFEVISHSFVRKLAPNEFPHKLYIQNYTSAVPGTCLTIRKWLFTTEEEILLNDNDLAVTYFFHQAVDDVKKGYIKAEEKSYQLQKLYEQRKMVMYLNMLRTCEGYNEIIFPHCACDSRRKGHVITAISITHFKLHACTEEGQLENQVIAFEWDEMQRWDTDEEGMAFCFEYARGEKKPRWVKIFTPYFNYMHECFERVFCELKWRKEEY,not soluble
15,MGSLDLPYASSFKGGSETFLQNVFESILKTYLRKNPMAKTIWELVKSVDNEKISYDHFFFRTFKVDGYGIDSLASFFMDYGYKVGGRLDFPKKKVQVLWLSPPDVHFPDNGYGIGNGPLPRLVIAELLVEELSPESQEIIRKYLKPEGGKQAVLSSTLGSLIWEKPTSTDFNQLAKESEFAAWTLVYGYTMNHLAFAVHRLKHRFSDIKCVKEYFEENGFELNKDGGVLKVSEDSLLLQVSAMSEKLVVEFADGVTQIVPASYIEFVERLVLPQFKDMPCDEIKEFHRREGLEQASAYHIMESTRFTA,soluble
16,MGSDKIHHHHHHMSLLVKAYRYGYTIARVTPASACWRYVGFAAYRLGTAEVVHVHEPSREVCIVVLTGTVDIETADTTWRSLGSRDSVFEDAAPYAVYLPPNVRATVRACRDAEIGVASAPARGGYPARLIEPASMKRSTRGKGLNTRYVCDILPQTEPAESLLVVEVRTPGGHASSYPPHKHDTDNVPQESSLEETYYHRLDPPQGFAFQRVYTDMRDIDESMAVEDHDVVMVPRGYHPVVVPYGYDSYYLNVMAGGKRVWHFRNDPAHEWIINKDA,not soluble
17,AIASCGKPQETYSTSSILTREQFEIQHQEEDTIGEQVIFIDGVAYNSRGFRVCGAPNQRGGFCARFGQCPFHKDKVTTFKMSEETVSEFPRQLLTESCNLLQNNERKFKNAWKLDEHHRFLVALKKFGHGNWRQIADYVETRSASQCQSHAQKYYLRKRKLASNANLKRSIFDLIDEDTLSVEIGEEDTWNIIQKCPSKEAQGSVRSRSKTLQRMSTDSSVESYPIRELSTVDSELSTLQTYKQASFFIRIFRNGVFSHGVDLELPNSLASFFIKAAQLLDMSVATKAYTRSGFEISSLHEVCPGDILWISSGEEFIFPSPVQYIET,soluble
18,SLKSFPHGEKAPFPLTLIHINDLHARFDETNQKSSTCTNSKECIAGIARVYHTIKQLKSEYKTKNPLYLNAGDNFQGTLWYNLLRWNVTAYFIKELPPDAMTLGNHEFDHSPKGLAPYLAELEKMKIPTVVANLEKNGEPALKDSKIAPQIVLKVGNRKVGVIGALYDKTHLVAQTGMVTLTNSIEAVRKEAQELKKKNVNIIVVLSHCGLDGDKQLAEEAGDLIDVIVGAHSHSLLLNKDAKVPYDTKYDTIEGDYPLVVKKSNNHTVLITQARSFGKYVGRLTVNFDCEGEVQSWEGYPIYMNNSVKQDEEVLRELEPWRAEVKRLGTQVIGTTEVFLDRESCRWCECTLGDLIADAYADQYTNSTVQPVAFVQAGNFRNPIEKGDITNGLAIEAAPYGSSVDMIKLSGADLWSAIDHSFTLDDEFRYNTAQVSGMTVVADLSKKPYERVQSIDIVGANGAKTALKKDQIYYVAVPSYLADGKDGFAMLKKGTNRVTGPLDSDVLIEYVRKRQTIAKTMFQEKRVVIENHTNGTCSWDLDSQRYKPK,not soluble
